Assay results published in publication PMC5159498.
pKd: −log10 of the molar value.

Tests used:
[1] = molecular target: CDC42 Q61L (human) (UniProt P60953); test: stopped-flow fluorometry; tGppNHp (tamra-GppNHp)-bound CDC42 or CDC42 Q61L (0.2 μM) rapidly mixed with IQGAP1 variant (2-10 μM GRD1-CT for Q61L); Kd = koff/kon; 30 mM Tris-HCl pH 7.5, 10 mM KH2PO4/K2HPO4, 5 mM MgCl2, 3 mM DTT
[2] = molecular target: CDC42 Q61L (human) (UniProt P60953); test: fluorescence polarisation; GRD1-CT (0-2.5 μM) or GRD2 (0-7.5 μM) titrated to tGppNHp-bound CDC42 Q61L (1 μM); 30 mM Tris/HCl pH 7.5, 150 mM NaCl, 5 mM MgCl2, 3 mM DTT, 25 °C
[3] = molecular target: CDC42 Q61L (human) (UniProt P60953); test: fluorescence polarisation; IQGAP1 variant titrated to mGppNHp-bound RHO protein (1 μM); equilibrium Kd (eKd), quadratic fit; 30 mM Tris/HCl pH 7.5, 150 mM NaCl, 5 mM MgCl2, 3 mM DTT, 25 °C
[4] = molecular target: CDC42 (aa 1-178) (human) (UniProt P60953); test: fluorescence polarisation; IQGAP1 variant titrated to mGDP-bound (inactive) RHO protein (1 μM), same conditions as with mGppNHp; 30 mM Tris/HCl pH 7.5, 150 mM NaCl, 5 mM MgCl2, 3 mM DTT, 25 °C
[5] = molecular target: CDC42 (aa 1-178) (human) (UniProt P60953); test: fluorescence polarisation; IQGAP1 variant titrated to mGppNHp-bound RHO protein (1 μM); equilibrium Kd (eKd), quadratic fit; 30 mM Tris/HCl pH 7.5, 150 mM NaCl, 5 mM MgCl2, 3 mM DTT, 25 °C
[6] = molecular target: RAC1 (aa 1-179) (human) (UniProt P63000); test: as above

IQGAP1 GRD2 (aa 962-1345), sequence (P46940 962-1345): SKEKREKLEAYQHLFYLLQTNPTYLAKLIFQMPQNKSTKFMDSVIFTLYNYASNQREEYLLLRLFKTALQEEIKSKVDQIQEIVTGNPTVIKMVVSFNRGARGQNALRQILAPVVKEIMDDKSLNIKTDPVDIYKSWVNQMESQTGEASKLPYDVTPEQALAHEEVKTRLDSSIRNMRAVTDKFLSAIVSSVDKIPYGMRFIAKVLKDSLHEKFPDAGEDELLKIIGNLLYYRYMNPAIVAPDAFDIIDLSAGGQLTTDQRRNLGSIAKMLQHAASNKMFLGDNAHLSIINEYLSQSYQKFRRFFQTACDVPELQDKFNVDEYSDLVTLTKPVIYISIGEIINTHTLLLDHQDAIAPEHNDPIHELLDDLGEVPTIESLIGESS
IQGAP1 GRD1-CT (aa 863-1657), sequence (P46940 863-1657): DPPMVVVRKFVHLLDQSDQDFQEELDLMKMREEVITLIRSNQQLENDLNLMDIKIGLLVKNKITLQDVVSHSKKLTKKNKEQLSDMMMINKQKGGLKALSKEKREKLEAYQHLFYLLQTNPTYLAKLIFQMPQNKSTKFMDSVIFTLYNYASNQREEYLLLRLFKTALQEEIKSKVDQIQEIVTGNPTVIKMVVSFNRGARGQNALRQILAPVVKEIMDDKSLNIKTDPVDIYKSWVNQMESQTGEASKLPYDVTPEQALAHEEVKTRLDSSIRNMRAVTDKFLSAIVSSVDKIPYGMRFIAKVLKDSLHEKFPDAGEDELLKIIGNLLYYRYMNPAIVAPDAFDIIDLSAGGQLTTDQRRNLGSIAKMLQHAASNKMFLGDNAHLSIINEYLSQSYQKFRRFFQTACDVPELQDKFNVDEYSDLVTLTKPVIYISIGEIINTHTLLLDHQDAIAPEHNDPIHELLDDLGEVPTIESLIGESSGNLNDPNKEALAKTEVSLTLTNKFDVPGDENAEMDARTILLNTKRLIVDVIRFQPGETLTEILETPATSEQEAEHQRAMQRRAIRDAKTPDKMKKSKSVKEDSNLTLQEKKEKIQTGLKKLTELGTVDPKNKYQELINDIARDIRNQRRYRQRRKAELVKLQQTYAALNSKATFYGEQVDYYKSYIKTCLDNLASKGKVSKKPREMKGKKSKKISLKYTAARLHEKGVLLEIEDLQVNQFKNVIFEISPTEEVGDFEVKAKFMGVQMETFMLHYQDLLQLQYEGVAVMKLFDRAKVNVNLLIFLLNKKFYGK
CDC42 (aa 1-178) (human), sequence (P60953 1-178): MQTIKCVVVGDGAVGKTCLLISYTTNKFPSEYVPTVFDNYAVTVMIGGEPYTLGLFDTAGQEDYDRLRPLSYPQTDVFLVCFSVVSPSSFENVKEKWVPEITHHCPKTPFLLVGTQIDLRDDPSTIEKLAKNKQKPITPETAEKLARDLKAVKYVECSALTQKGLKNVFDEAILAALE

Substance	pKd [1]	pKd [2]	pKd [3]	pKd [4]	pKd [5]	pKd [6]
IQGAP1 GRD1-CT (aa 863-1657) (from UniProt P46940 863-1657) (domain or fragment)	7.30	6.28	6.08	–	–	–
IQGAP1 GRD2 (aa 962-1345) (from UniProt P46940 962-1345) (domain or fragment)	–	5.95	5.63	3.73	4.52	4.09
